Results on two molecules are retold here after paper PMC11189301, “Structure of the human outer kinetochore KMN network complex” (Nature Structural & Molecular Biology, 2024).

In this assay the target is T1, NDC80 complex (Ndc80, Nuf2, Spc24, Spc25), full length, unmodified (Homo sapiens, UniProt O14777 1-642; Q9BZD4 1-464; Q8NBT2 1-197; Q9HBM1 1-224).
T1 construct: Ndc80, subunit of human NDC80C; Nuf2, subunit of human NDC80C; Spc24, subunit of human NDC80C; Spc25, subunit of human NDC80C; The DS tag on Nuf2 is TEV cleavable; a cleavage is not described; Ndc80 and Nuf2 were in the cryo-EM sample but not seen at high resolution; also called wild-type NDC80; source: High-5 insect cells (baculovirus), purified (Strep-Tactin, Resource Q, Superdex 200); copies: …
Description: SEC; MIS12C variant mixed with NDC80C at 4 µM each; 20 mM HEPES pH 7.8, 150 mM NaCl, 0.5 mM TCEP; Superose 6; fractions on SDS-PAGE. The note with it: both partners purified.

T1 sequence (O14777 whole entry, chain 1 of 4): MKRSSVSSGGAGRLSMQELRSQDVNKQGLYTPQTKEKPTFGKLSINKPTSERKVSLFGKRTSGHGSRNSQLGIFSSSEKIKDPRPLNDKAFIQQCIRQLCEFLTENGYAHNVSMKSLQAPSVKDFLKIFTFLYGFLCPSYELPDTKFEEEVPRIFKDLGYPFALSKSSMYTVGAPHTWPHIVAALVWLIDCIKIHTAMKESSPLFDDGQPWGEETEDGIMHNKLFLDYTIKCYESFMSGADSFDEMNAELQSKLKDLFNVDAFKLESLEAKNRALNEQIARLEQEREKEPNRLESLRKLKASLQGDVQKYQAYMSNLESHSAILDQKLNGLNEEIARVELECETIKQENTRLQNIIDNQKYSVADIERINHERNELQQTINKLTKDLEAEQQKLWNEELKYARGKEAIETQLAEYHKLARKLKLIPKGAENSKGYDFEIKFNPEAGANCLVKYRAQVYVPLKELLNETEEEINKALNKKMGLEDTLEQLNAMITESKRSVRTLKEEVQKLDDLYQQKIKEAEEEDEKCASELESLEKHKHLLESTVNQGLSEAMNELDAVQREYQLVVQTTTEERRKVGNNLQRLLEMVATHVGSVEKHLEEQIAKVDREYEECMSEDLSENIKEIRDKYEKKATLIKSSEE
T1 sequence (Q9BZD4 whole entry, chain 2 of 4): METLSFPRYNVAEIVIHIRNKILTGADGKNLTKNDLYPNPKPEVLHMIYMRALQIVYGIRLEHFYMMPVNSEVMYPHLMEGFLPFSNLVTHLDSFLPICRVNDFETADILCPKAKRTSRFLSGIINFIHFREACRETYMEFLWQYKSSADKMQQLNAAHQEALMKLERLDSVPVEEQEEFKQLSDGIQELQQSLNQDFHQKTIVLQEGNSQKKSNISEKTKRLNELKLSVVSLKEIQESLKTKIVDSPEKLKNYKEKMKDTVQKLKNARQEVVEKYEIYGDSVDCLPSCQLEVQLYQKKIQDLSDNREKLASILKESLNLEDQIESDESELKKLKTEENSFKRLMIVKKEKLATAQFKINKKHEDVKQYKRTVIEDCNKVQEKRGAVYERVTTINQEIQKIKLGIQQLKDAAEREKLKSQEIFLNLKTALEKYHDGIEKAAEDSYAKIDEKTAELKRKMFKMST
T1 sequence (Q8NBT2 whole entry, chain 3 of 4): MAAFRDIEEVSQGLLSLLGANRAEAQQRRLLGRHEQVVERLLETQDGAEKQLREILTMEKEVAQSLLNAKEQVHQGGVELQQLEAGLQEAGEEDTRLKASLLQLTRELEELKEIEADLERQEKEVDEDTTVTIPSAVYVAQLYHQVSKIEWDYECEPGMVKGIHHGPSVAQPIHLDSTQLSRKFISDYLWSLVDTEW
T1 sequence (Q9HBM1 whole entry, chain 4 of 4): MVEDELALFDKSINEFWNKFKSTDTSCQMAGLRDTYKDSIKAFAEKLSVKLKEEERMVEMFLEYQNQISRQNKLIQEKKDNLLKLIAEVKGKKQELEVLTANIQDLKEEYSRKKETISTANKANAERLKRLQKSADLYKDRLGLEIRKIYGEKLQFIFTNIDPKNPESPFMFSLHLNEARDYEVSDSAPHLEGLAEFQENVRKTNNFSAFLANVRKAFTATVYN

B1: MIS12 complex (Mis12, Pmf1, Dsn1, Nsl1), wild type, full length (complex, Homo sapiens)
chain 1: MSVDPMTYEAQFFGFTPQTCMLRIYIAFQDYLFEVMQAVEQVILKKLDGIPDCDISPVQIRKCTEKFLCFMKGHFDNLFSKMEQLFLQLILRIPSNILLPEDKCKETPYSEEDFQHLQKEIEQLQEKYKTELCTKQALLAELEEQKIVQAKLKQTLTFFDELHNVGRDHGTSDFRESLVSLVQNSRKLQNIRDNVEKESKRLKIS
chain 2: MAEASSANLGSGCEEKRHEGSSSESVPPGTTISRVKLLDTMVDTFLQKLVAAGSYQRFTDCYKCFYQLQPAMTQQIYDKFIAQLQTSIREEISDIKEEGNLEAVLNALDKIVEEGKVRKEPAWRPSGIPEKDLHSVMAPYFLQQRDTLRRHVQKQEAENQQLADAVLAGRRQVEELQLQVQAQQQAWQALHREQRELVAVLREPE
chain 3: MTSVTRSEIIDEKGPVMSKTHDHQLESSLSPVEVFAKTSASLEMNQGVSEERIHLGSSPKKGGNCDLSHQERLQSKSLHLSPQEQSASYQDRRQSWRRASMKETNRRKSLHPIHQGITELSRSISVDLAESKRLGCLLLSSFQFSIQKLEPFLRDTKGFSLESFRAKASSLSEELKHFADGLETDGTLQKCFEDSNGKASDFSLEASVAEMKEYITKFSLERQTWDQLLLHYQQEAKEILSRGSTEAKITEVKVEPMTYLGSSQNEVLNTKPDYQKILQNQSKVFDCMELVMDELQGSVKQLQAFMDESTQCFQKVSVQLGKRSMQQLDPSPARKLLKLQLQNPPAIHGSGSGSCQ
chain 4: MAGSPELVVLDPPWDKELAAGTESQALVSATPREDFRVRCTSKRAVTEMLQLCGRFVQKLGDALPEEIREPALRDAQWTFESAVQENISINGQAWQEASDNCFMDSDIKVLEDQFDEIIVDIATKRKQYPRKILECVIKTIKAKQEILKQYHPVVHPLDLKYDPDPAPHMENLKCRGETVAKEISEAMKSLPALIEQGEGFSQVLRMQPVIHLQRIHQEVFSSCHRKPDAKPENFITQIETTPTETASRKTSDMVLKRKQTKDCPQRKWYPLRPKKINLDT
notes: Mis12, subunit of human MIS12C; Pmf1, subunit of human MIS12C; Dsn1, subunit of human MIS12C; Nsl1, subunit of human MIS12C; The DS tag on Pmf1 is TEV cleavable; a cleavage is not described; also called MIS12C (WT); wild-type MIS12C; source: High-5 insect cells (baculovirus), purified (Strep-Tactin, Resource S, Superdex 200); copies: + + +
In the case of B1, the binding result is on record as “binds”.

B2: MIS12 complex with Dsn1 P332W R334A L336R (complex, Homo sapiens)
chain 1: MSVDPMTYEAQFFGFTPQTCMLRIYIAFQDYLFEVMQAVEQVILKKLDGIPDCDISPVQIRKCTEKFLCFMKGHFDNLFSKMEQLFLQLILRIPSNILLPEDKCKETPYSEEDFQHLQKEIEQLQEKYKTELCTKQALLAELEEQKIVQAKLKQTLTFFDELHNVGRDHGTSDFRESLVSLVQNSRKLQNIRDNVEKESKRLKIS
chain 2: MAEASSANLGSGCEEKRHEGSSSESVPPGTTISRVKLLDTMVDTFLQKLVAAGSYQRFTDCYKCFYQLQPAMTQQIYDKFIAQLQTSIREEISDIKEEGNLEAVLNALDKIVEEGKVRKEPAWRPSGIPEKDLHSVMAPYFLQQRDTLRRHVQKQEAENQQLADAVLAGRRQVEELQLQVQAQQQAWQALHREQRELVAVLREPE
chain 3: MTSVTRSEIIDEKGPVMSKTHDHQLESSLSPVEVFAKTSASLEMNQGVSEERIHLGSSPKKGGNCDLSHQERLQSKSLHLSPQEQSASYQDRRQSWRRASMKETNRRKSLHPIHQGITELSRSISVDLAESKRLGCLLLSSFQFSIQKLEPFLRDTKGFSLESFRAKASSLSEELKHFADGLETDGTLQKCFEDSNGKASDFSLEASVAEMKEYITKFSLERQTWDQLLLHYQQEAKEILSRGSTEAKITEVKVEPMTYLGSSQNEVLNTKPDYQKILQNQSKVFDCMELVMDELQGSVKQLQAFMDESTQCFQKVSVQLGKRSMQQLDPSWAAKRLKLQLQNPPAIHGSGSGSCQ
chain 4: MAGSPELVVLDPPWDKELAAGTESQALVSATPREDFRVRCTSKRAVTEMLQLCGRFVQKLGDALPEEIREPALRDAQWTFESAVQENISINGQAWQEASDNCFMDSDIKVLEDQFDEIIVDIATKRKQYPRKILECVIKTIKAKQEILKQYHPVVHPLDLKYDPDPAPHMENLKCRGETVAKEISEAMKSLPALIEQGEGFSQVLRMQPVIHLQRIHQEVFSSCHRKPDAKPENFITQIETTPTETASRKTSDMVLKRKQTKDCPQRKWYPLRPKKINLDT
notes: Mis12, subunit of human MIS12C; Pmf1, subunit of human MIS12C; Dsn1, subunit of human MIS12C, P332W R334A L336R; Nsl1, subunit of human MIS12C; also called MIS12C^(Dsn1-P332W R334A L336R); MIS12C^(Dsn1 P332W/R334A/L336R); source: High-5 insect cells (baculovirus), purified (Strep-Tactin, Resource S, Superdex 200); copies: + + +
For B2, the binding result is reported as “binds”.
